Several values for one entry are separate records, joined by “and”; a condition that tells them apart may be missing. Identical values can stand only once.
Settings: Homo sapiens, whole UniProt chain shown
[1] = pH 7, 25 °C, Urea, CD, Tris-HCL, Nacl, transition: 2, reversible: yes
[2] = pH 7, 25 °C, Urea, Fluorescence, Tris-HCl, NaCl, transition: 2
[3] = pH 7, 25 °C, Urea, fluorescence, Tris-HCL, Nacl, transition: 2, reversible: yes
[4] = pH 7.5, 25 °C, Urea, CD, HEPES 20 mM, NaCl 100 mM, reversible: no
[5] = pH 7.5, 25 °C, Urea, CD, Sodium phosphate 15 mM, NaCl 100 mM, reversible: yes
[6] = pH 7, Thermal, DSC, Tris-Maleate 0.02M, KCl 0.1 M, transition: 2, reversible: no
[7] = pH 7, Thermal, DSC, Tris-Maleate / KCL 20000 / 100000, transition: 2, reversible: no
[8] = pH 5.3, Thermal, DSC, acetate 20 mM
[9] = pH 7, 37 °C, GdnHCl, CD, Sodium phosphate 100 mM, reversible: Yes
[10] = pH 7.8, Thermal, DSC, Potassium phosphate 2 mM, reversible: yes
[11] = pH 7.5, 0 °C, GdnHCl, CD, Na2HPO4 5 mM, transition: 2, reversible: No
[12] = pH 4, 25 °C, GdnHCl, CD, Tris sodium acetate MES 50 mM 20 mM 20 mM
[13] = pH 7, 25 °C, GdnHCl, CD, Tris sodium acetate MES 50 mM 20 mM 20 mM
[14] = pH 8, Thermal, CD, Tris-HCl 10 mM

B1: Frataxin, mitochondrial wild type, Q16595 (protein)
chain: MWTLGRRAVAGLLASPSPAQAQTLTRVPRPAELAPLCGRRGLRTDIDATCTPRRASSNQRGLNQIWNVKKQSVYLMNLRKSGTLGHPGSLDETTYERLAEETLDSLAEFFEDLADKPYTFEDYDVSFGSGVLTVKLGGDLGTYVINKQTPNKQIWLSSPSSGPKRYDWTGKNWVYSHDGVSLHELLAAELTKALKTKLDLSSLAYSGKDA
denaturant midpoint (higher = more stable) [1]: 4.92 M
unfolding free energy [1]: 9 kcal/mol
denaturant midpoint (higher = more stable) (pH 7, 25 °C, Urea, CD, Tris-HCl, NaCl, transition: 2): 4.92 M
denaturant midpoint (higher = more stable) [2]: 4.94 M
unfolding free energy [2]: 9.1 kcal/mol
denaturant midpoint (higher = more stable) [3]: 4.94 M
unfolding free energy [3]: 9.1 kcal/mol
Tm (pH 7, Thermal, CD, Sodium phosphate buffer, NaCl): 69.4 °C
Tm (pH 7, Thermal, CD, sodium phosphate, Nacl, transition: 2): 69.4 °C

B2: Cyclin-dependent kinase inhibitor 2A wild type, P42771 (protein)
chain: MEPAAGSSMEPSADWLATAAARGRVEEVRALLEAGALPNAPNSYGRRPIQVMMMGSARVAELLLLHGAEPNCADPATLTRPVHDAAREGFLDTLVVLHRAGARLDVRDAWGRLPVDLAEELGHRDVARYLRAAAGGTRGSNHARIDAAEGPSDIPD
denaturant midpoint (higher = more stable) [4]: 2.74 M
unfolding free energy [4]: 2.7 kcal/mol
unfolding free energy (pH 7.5, 25 °C, Urea, CD, MOPS 10 mM, NaF 50 mM, reversible: Yes): 2.3 kcal/mol
denaturant m value [5]: 2 kcal/mol/M
denaturant midpoint (higher = more stable) [5]: 1.9 M
Tm (pH 7.5, Thermal, CD, HEPES 50 mM, reversible: no): 41.5 °C

B3: Matrilysin wild type, P09237 (protein)
chain: MRLTVLCAVCLLPGSLALPLPQEAGGMSELQWEQAQDYLKRFYLYDSETKNANSLEAKLKEMQKFFGLPITGMLNSRVIEIMQKPRCGVPDVAEYSLFPNSPKWTSKVVTYRIVSYTRDLPHITVDRLVSKALNMWGKEIPLHFRKVVWGTADIMIGFARGAHGDSYPFDGPGNTLAHAFAPGTGLGGDAHFDEDERWTDGSSLGINFLYAATHELGHSLGMGHSSDPNAVMYPTYGNGDPQNFKLSQDDIKGIQKLYGKRSNSRKK
Tm [6]: 98.3 °C
unfolding enthalpy (calorimetric) [6]: 13.7 kcal/mol
Tm [7]: 98.3 °C
unfolding enthalpy (calorimetric) [7]: 13.8 kcal/mol

B4: Cystatin-B wild type, P04080 (protein)
chain: MMCGAPSATQPATAETQHIADQVRSQLEEKENKKFPVFKAVSFKSQVVAGTNYFIKVHVGDEDFVHLRVFQSLPHENKPLTLSNYQTNKAKHDELTYF
Tm [8]: 50.2 °C
heat capacity change of unfolding [8]: 1.6 kcal/mol/K
unfolding enthalpy (calorimetric) [8]: 70 kcal/mol

B5: Gamma-crystallin S wild type, P22914 (protein)
chain: MSKTGTKITFYEDKNFQGRRYDCDCDCADFHTYLSRCNSIKVEGGTWAVYERPNFAGYMYILPQGEYPEYQRWMGLNDRLSSCRAVHLPSGGQYKIQIFEKGDFSGQMYETTEDCPSIMEQFHMREIHSCKVLEGVWIFYELPNYRGRQYLLDKKEYRKPIDWGAASPAVQSFRRIVE
denaturant m value [9]: 4.6 kcal/mol/M and 2.9 kcal/mol/M
denaturant midpoint (higher = more stable) [9]: 2.3 M and 1.7 M
unfolding free energy [9]: 10.5 kcal/mol and 4.9 kcal/mol
Tm (pH 7.4, Thermal, Fluorescence, Disodium phosphate, NaCl): 67.5 °C and 65.8 °C

B6: Superoxide dismutase [Mn], mitochondrial wild type, P04179 (protein)
chain: MLSRAVCGTSRQLAPVLGYLGSRQKHSLPDLPYDYGALEPHINAQIMQLHHSKHHAAYVNNLNVTEEKYQEALAKGDVTAQIALQPALKFNGGGHINHSIFWTNLSPNGGGEPKGELLEAIKRDFGSFDKFKEKLTAASVGVQGSGWGWLGFNKERGHLQIAACPNQDPLQGTTGLIPLLGIDVWEHAYYLQYKNVRPDYLKAIWNVINWENVTERYMACKK
Tm [10]: 70 °C
unfolding enthalpy (calorimetric) [10]: 142 kcal/mol

B7: Apolipoprotein C-I wild type, P02654 (protein)
chain: MRLFLSLPVLVVVLSIVLEGPAPAQGTPDVSSALDKLKEFGNTLEDKARELISRIKQSELSAKMREWFSETFQKVKEKLKIDS
denaturant m value [11]: 3.7 kcal/mol/M
denaturant midpoint (higher = more stable) [11]: 0.85 M
unfolding free energy [11]: 2.8 kcal/mol
unfolding free energy (pH 7.5, 25 °C, GdnHCl, CD, Na2HPO4 5 mM, transition: 2, reversible: No): 1.8 kcal/mol
Tm (pH 7.8, Thermal, CD, Sodium phosphate 5 mM, reversible: yes): 51 °C

B8: Interleukin-2 wild type, Q7Z7M3 (protein)
chain: MPTSSSTKKTQLQLEHLLLDLQMILNGINNYKNPKLTRMLTFKFYMPKKATELKHLQCLEEELKPLKEVLNLAQSKNFHLRPRDLISNINVIVLELKGSETTFMCEYADETATIVEFLNRWITFSQSIISTLT
denaturant midpoint (higher = more stable) [12]: 4.4 M
unfolding free energy [12]: 9.9 kcal/mol
denaturant midpoint (higher = more stable) [13]: 3.8 M
unfolding free energy [13]: 9.3 kcal/mol

B9: Annexin A5 wild type, P08758 (protein)
chain: MAQVLRGTVTDFPGFDERADAETLRKAMKGLGTDEESILTLLTSRSNAQRQEISAAFKTLFGRDLLDDLKSELTGKFEKLIVALMKPSRLYDAYELKHALKGAGTNEKVLTEIIASRTPEELRAIKQVYEEEYGSSLEDDVVGDTSGYYQRMLVVLLQANRDPDAGIDEAQVEQDAQALFQAGELKWGTDEEKFITIFGTRSVSHLRKVFDKYMTISGFQIEETIDRETSGNLEQLLLAVVKSIRSIPAYLAETLYYAMKGAGTDDHTLIRVMVSRSEIDLFNIRKEFRKNFATSLYSMIKGDTSGDYKKALLLLCGEDD
Tm [14]: 51.9 °C
unfolding enthalpy (van 't Hoff) [14]: 166 kcal/mol

B10: Gamma-crystallin D wild type, P07320 (protein)
chain: MGKITLYEDRGFQGRHYECSSDHPNLQPYLSRCNSARVDSGCWMLYEQPNYSGLQYFLRRGDYADHQQWMGLSDSVRSCRLIPHSGSHRIRLYEREDYRGQMIEFTEDCSCLQDRFRFNEIHSLNVLEGSWVLYELSNYRGRQYLLMPGDYRRYQDWGATNARVGSLRRVIDFS
denaturant midpoint (higher = more stable) (pH 7, 25 °C, GdnHCl, Fluorescence, NaPO4 10 mM, reversible: yes): 3.7 M
denaturant midpoint (higher = more stable) (pH 7, 37 °C, GdnHCl, Fluorescence, NaPO4 10 mM, reversible: yes): 2.7 M
Tm (pH 7, Thermal, ANS fluorescence, PBS, transition: 2, reversible: yes): 76.6 °C
Tm (pH 7, Thermal, CD, PBS, transition: 2, reversible: yes): 80 °C

Source: FireProtDB
